From IntAct's records for PubMed 29039417

B1: BBSome complex member BBS2 (Homo sapiens), Q9BXC9 (parent)
chain: MLLPVFTLKLRHKISPRMVAIGRYDGTHPCLAAATQTGKVFIHNPHTRNQHVSASRVFQSPLESDVSLLSINQAVSCLTAGVLNPELGYDALLVGTQTNLLAYDVYNNSDLFYREVADGANAIVLGTLGDISSPLAIIGGNCALQGFNHEGSDLFWTVTGDNVNSLALCDFDGDGKKELLVGSEDFDIRVFKEDEIVAEMTETEIVTSLCPMYGSRFGYALSNGTVGVYDKTSRYWRIKSKNHAMSIHAFDLNSDGVNELITGWSNGKVDARSDRTGEVIFKDNFSSAIAGVVEGDYRMDGHIQLICCSVDGEIRGYLPGTAEMRGNLMDTSAEQDLIRELSQKKQNLLLELRNYEENAKAELASPLNEADGHRGIIPANTRLHTTLSVSLGNETQTAHTELRISTSNDTIIRAVLIFAEGIFTGESHVVHPSIHNLSSSICIPIVPPKDVPVDLHLKAFVGYRSSTQFHVFESTRQLPRFSMYALTSLDPASEPISYVNFTIAERAQRVVVWLGQNFLLPEDTHIQNAPFQVCFTSLRNGGHLHIKIKLSGEITINTDDIDLAGDIIQSMASFFAIEDLQVEADFPVYFEELRKVLVKVDEYHSVHQKLSADMADHSNLIRSLLVGAEDARLMRDMKTMKSRYMELYDLNRDLLNGYKIRCNNHTELLGNLKAVNQAIQRAGRLRVGKPKNQVITACRDAIRSNNINTLFKIMRVGTASS
partner: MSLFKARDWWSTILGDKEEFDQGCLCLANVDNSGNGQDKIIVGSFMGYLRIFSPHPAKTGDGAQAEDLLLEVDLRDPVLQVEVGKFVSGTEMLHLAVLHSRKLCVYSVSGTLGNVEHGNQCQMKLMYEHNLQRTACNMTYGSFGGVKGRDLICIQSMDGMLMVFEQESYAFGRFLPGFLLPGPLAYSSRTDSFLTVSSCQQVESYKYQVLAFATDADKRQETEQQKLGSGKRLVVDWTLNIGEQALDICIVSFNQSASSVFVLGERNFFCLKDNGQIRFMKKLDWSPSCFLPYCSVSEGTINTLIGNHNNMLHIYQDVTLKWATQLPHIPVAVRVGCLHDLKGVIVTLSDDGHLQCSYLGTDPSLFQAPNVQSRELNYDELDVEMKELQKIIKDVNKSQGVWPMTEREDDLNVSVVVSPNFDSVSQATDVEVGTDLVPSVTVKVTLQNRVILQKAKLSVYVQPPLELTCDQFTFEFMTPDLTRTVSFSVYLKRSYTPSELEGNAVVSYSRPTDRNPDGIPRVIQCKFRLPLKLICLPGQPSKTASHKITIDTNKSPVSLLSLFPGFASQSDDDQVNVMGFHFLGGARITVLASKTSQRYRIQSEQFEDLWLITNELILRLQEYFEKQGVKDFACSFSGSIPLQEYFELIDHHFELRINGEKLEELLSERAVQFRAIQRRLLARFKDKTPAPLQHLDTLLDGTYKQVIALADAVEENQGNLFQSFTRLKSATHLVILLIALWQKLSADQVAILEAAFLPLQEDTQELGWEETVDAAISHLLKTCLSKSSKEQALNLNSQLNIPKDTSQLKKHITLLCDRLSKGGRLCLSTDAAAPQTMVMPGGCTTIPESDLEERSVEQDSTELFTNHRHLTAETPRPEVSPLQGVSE

Variants of: B1
Conditions: with pthb1_human BBS9, Q3SYG4

Variant	effect of a mutation on the interaction
L486A	with no effect
L655E	with no effect
L363E	with no effect
L363K	with no effect
R539E	with no effect
S551E	with no effect
I422E	with no effect
G425E	with no effect
P690A	with no effect
T406E	with no effect
T406K	with no effect
L337E	with no effect
V461M	disrupting interaction strength
N692A	with no effect
Q468A	with no effect
K689A	with no effect
G552A	with no effect
L672E	with no effect
Q677A	with no effect
F586A	with no effect
A631K	with no effect
A612K	with no effect
S427A	with no effect

Variant	effect of a mutation on the interaction
I526K	with no effect
Y658A	with no effect
I556A	with no effect
Q581E	with no effect
D630K	with no effect
V430E	with no effect
A364K	with no effect
P452K	with no effect
N651K	with no effect
D616E	with no effect
D409K	with no effect
V510E	with no effect
G565K	with no effect
E356S	disrupting interaction strength
R622K	with no effect
T487A	with no effect
A529K	with no effect
G627A	with no effect
L563K	with no effect
L563A	with no effect
H470A	with no effect
Q569K	with no effect
I376K	with no effect

Variant	effect of a mutation on the interaction
R681A	with no effect
S388P	disrupting interaction strength
K344E	with no effect
S466K	with no effect
D490E	with no effect
S720K	with no effect
K599A	with no effect
Q532A	with no effect
T385A	disrupting interaction strength
R353E	with no effect
L520K	with no effect
V512K	with no effect
V511K	with no effect
M637K	with no effect
E334A	with no effect
T555A	with no effect
I445K	disrupting interaction strength
I445A	disrupting interaction strength
Y589A	with no effect
N619E	with no effect
S611A	with no effect
L624E	with no effect
D579E	with no effect

Variant	effect of a mutation on the interaction
V429E	with no effect
I660K	with no effect
R325K	with no effect
S405E	with no effect
F472E	with no effect
A674K	with no effect
E592K	with no effect
V415A	with no effect
F469K	disrupting interaction strength
T502K	with no effect
L367E	with no effect
L367K	with no effect
V499K	with no effect
N358E	with no effect
S537F	disrupting interaction strength
Y484A	disrupting interaction strength
D636G	disrupting interaction strength
C698A	with no effect
S623K	with no effect
L580E	with no effect
